Data as given in IntAct's records for PubMed 18049475.

Key:
gck3_caeel gck-3 [1] = target: gck3_caeel gck-3 (UniProt G5EEN4)
gck3_caeel gck-3 [2] = target: gck3_caeel gck-3 (UniProt G5EEN4); remark: listed apart in the source
gck3_caeel gck-3 [3] = target: gck3_caeel gck-3 (UniProt G5EEN4); remark: listed apart in the source

Chain of gck3_caeel gck-3 (G5EEN4 whole entry): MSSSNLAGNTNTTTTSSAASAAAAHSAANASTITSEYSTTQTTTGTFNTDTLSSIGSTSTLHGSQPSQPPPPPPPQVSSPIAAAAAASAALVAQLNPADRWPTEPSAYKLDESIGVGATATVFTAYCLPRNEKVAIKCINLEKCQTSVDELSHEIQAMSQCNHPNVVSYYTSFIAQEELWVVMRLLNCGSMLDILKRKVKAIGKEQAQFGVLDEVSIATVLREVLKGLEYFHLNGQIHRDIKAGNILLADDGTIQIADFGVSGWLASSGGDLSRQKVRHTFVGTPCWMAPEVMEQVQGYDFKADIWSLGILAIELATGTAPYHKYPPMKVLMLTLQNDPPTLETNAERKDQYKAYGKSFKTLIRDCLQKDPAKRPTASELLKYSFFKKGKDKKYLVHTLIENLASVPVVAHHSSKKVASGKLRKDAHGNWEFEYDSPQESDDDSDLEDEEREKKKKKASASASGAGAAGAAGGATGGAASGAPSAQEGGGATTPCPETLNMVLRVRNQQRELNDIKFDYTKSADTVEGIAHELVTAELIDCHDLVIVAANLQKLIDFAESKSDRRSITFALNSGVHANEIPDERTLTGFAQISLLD

Substance: Serine/threonine-protein kinase WNK (Caenorhabditis elegans), X5M5N0 F1222A
- effect of a mutation on the interaction (gck3_caeel gck-3 [1]): decreasing interaction

Substance: Serine/threonine-protein kinase WNK (Caenorhabditis elegans), X5M5N0 F1133A;F1222A
- effect of a mutation on the interaction (gck3_caeel gck-3 [2]): disrupting interaction

Substance: Serine/threonine-protein kinase WNK (Caenorhabditis elegans), X5M5N0 F1133A
- effect of a mutation on the interaction (gck3_caeel gck-3 [3]): decreasing interaction
